# Data taken from the supplement of paper PMC10724198.
# Where “and” joins values, the source holds several entries; their conditions need not be identical. Identical values can stand only once. ± gives the standard deviation of the averaged measurements.
# Experiments:
# [1] = system: Saccharomyces cerevisiae; test: protein stability index of tFT-peptide fusion in deletion strain of DOA10 (PSI (0-1 scale)); higher = more stable (slower turnover)
# Protocol: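 MPS profiling in S. cerevisiae of two library types built from selected 12-aa C-degron peptides (IN1, IN2, LN1, LN3, VN2, R1-R5, W1-W3, Atg1 and Rpa12 C-termini): saturation mutagenesis libraries and C-terminal +1 capping libraries (13 aa). Each peptide is fused to the C-terminus of a sfGFP-mCherry timer, after a GGGS linker. Cells are FACS-sorted into 8 mCherry/sfGFP bins and sequenced. PSI runs from 0 (unstable) to 1 (stable), measured once in wild type and in the das1Δ or doa10Δ background.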
# [2] = system: Saccharomyces cerevisiae; test: protein stability index of tFT-peptide fusion in wild type (PSI (0-1 scale)); higher = more stable (slower turnover); settings: genetic background: wild type
# [3] = system: Saccharomyces cerevisiae; test: protein stability index of tFT-peptide fusion (C-terminal peptide) (PSI (0-1 scale)); higher = more stable (slower turnover)
# Protocol: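 MPS profiling in S. cerevisiae of the tFT-X12 degron library: putative degron peptides plus stable controls, 12 aa, fused to the C-terminus of a sfGFP-mCherry timer. Cells are FACS-sorted into 8 mCherry/sfGFP bins and deep-sequenced. PSI runs from 0 (unstable) to 1 (stable). Backgrounds are wild type, das1Δ and doa10Δ at 30 °C, and wild type, das1Δ, cdc34-1 and cdc53-1 at 37 °C; 2-3 technical replicates each.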
# [4] = system: Saccharomyces cerevisiae; test: protein stability index of tFT-peptide fusion in deletion strain of DAS1 (PSI (0-1 scale)); higher = more stable (slower turnover)
# [5] = system: Saccharomyces cerevisiae; test: protein stability index of tFT-peptide fusion (C-terminal peptide) (PSI (0-1 scale)); higher = more stable (slower turnover); settings: genetic background: wild type; temperature: 30 C
# [6] = genetic background: cdc34-1, temperature: 37 C
# [7] = genetic background: cdc53-1, temperature: 37 C
# [8] = genetic background: das1 deletion, temperature: 30 C
# [9] = genetic background: das1 deletion, temperature: 37 C
# [10] = genetic background: doa10 deletion, temperature: 30 C
# [11] = genetic background: wild type, temperature: 30 C
# [12] = genetic background: wild type, temperature: 37 C
# 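Wherever protein stability index of tFT-peptide fusion (C-terminal peptide) is given: PSI is a weighted mean of sequencing reads over stability bins, variants kept only with over 10 reads, mCherry proximal and sfGFP distal, peptide attached via GGGS linker.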
# 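Wherever protein stability index of tFT-peptide fusion in deletion strain of DAS1 is given: PSI is a weighted mean of each variant's read distribution over the sorted stability bins, computed only for variants having over 10 reads in total.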
# 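Wherever protein stability index of tFT-peptide fusion in deletion strain of DOA10 is given: PSI per variant is the weighted mean of its sequencing read distribution over the sorted stability bins, counting only variants with over 10 reads summed across bins.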
# 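Wherever protein stability index of tFT-peptide fusion in wild type is given: PSI derived as read-weighted mean over the 8 sorting bins, only variants exceeding 10 total reads kept, mCherry placed adjacent to the peptide and sfGFP distal.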
Sequence,protein stability index [1],protein stability index [2],other results
AIALPMCPLLLR,0.632,0.231,–
AITHPMCPLLLR,0.676,0.455,–
AITIPMCPLLLR,0.639,0.236,–
AITLFMCPLLLR,0.644,0.364,–
AITLPFCPLLLR,0.667,0.138,–
AITLPKCPLLLR,0.663,0.335,–
AITLPMCCLLLR,0.602,0.139,–
AITLPMCPELLR,0.674,0.663,–
AITLPMCPLDLR,0.685,0.676,–
AITLPMCPLGLR,0.683,0.644,–
AITLPMCPLLAR,0.343,0.311,–
AITLPMCPLLGR,0.607,0.603,–
AITLPMCPLLLRF,0.615,0.121,–
AITLPMCPLLMR,0.606,0.302,–
AITLPMCPLLQR,0.671,0.626,–
AITLPMCPLLWR,0.634,0.326,–
AITLPMCPLMLR,0.611,0.212,–
AITLPMCPLPLR,0.664,0.648,–
AITLPMCPQLLR,0.688,0.64,–
AITLPMCPSLLR,0.68,0.647,–
AITLPMCYLLLR,0.638,0.0897,–
AITLPMIPLLLR,0.595,0.115,–
AITLSMCPLLLR,0.653,0.311,–
AITNPMCPLLLR,0.658,0.488,–
AITRPMCPLLLR,0.65,0.393,–
CHVSLPILLFFR,0.624,0.0491,–
CLVSHPILLFFR,0.617,0.149,–

Sequence,protein stability index [1],protein stability index [2],other results
CLVSLPALLFFR,0.664,0.0784,–
CLVSLPIDLFFR,0.698,0.648,–
CLVSLPIFLFFR,0.591,0.0521,–
CLVSLPILLFAR,0.239,0.161,–
CLVSLPILLFER,0.625,0.569,–
CLVSLPILLFFRR,0.593,0.0999,–
CLVSLPILLFRR,0.66,0.43,–
CLVSLPILLFSR,0.486,0.391,–
CLVSLPIRLFFR,0.658,0.0878,–
CLVSLPYLLFFR,0.64,0.0667,–
CLVSLTILLFFR,0.263,0.185,–
CLVSPPILLFFR,0.651,0.0809,–
CYVSLPILLFFR,0.582,0.0495,–
EITLPMCPLLLR,0.656,0.338,–
FVTRLDAIYFRI,0.549,0.189,–
GHYMCSVGCWFR,0.643,0.365,–
GLDMCSVGCWFR,0.689,0.328,–
GLEMCSVGCWFR,0.658,0.241,–
GLFMCSVGCWFR,0.549,0.264,–
GLYFCSVGCWFR,0.607,0.202,–
GLYMCDVGCWFR,0.699,0.59,–
GLYMCSAGCWFR,0.696,0.427,–
GLYMCSVGCLFR,0.654,0.575,–
GLYMCSVGCNFR,0.648,0.632,–
GLYMCSVGCWAR,0.5,0.438,–
GLYMCSVGCWFRE,0.641,0.453,–
GLYMCSVGCWFRM,0.374,0.154,–

Sequence,protein stability index [1],protein stability index [2],other results
GLYMCSVGCWFRV,0.402,0.155,–
GLYMCSVGCWFT,0.484,0.423,–
GLYMCSVGCWMR,0.575,0.253,–
GLYMCSVGCWPR,0.67,0.64,–
GLYMCSVGCWQR,0.677,0.629,–
GLYMCSVGFWFR,0.545,0.364,–
GLYMCSVGPWFR,0.688,0.656,–
GLYMCSVGQWFR,0.671,0.636,–
GLYMCSVGWWFR,0.557,0.499,–
GLYMCYVGCWFR,0.423,0.223,–
GLYMQSVGCWFR,0.678,0.287,–
GLYMTSVGCWFR,0.709,0.275,–
GLYVCSVGCWFR,0.573,0.2,–
HVTRLDAIYFRI,0.702,0.343,–
IITLPMCPLLLR,0.597,0.324,–
LVTRLDAIYFRI,0.604,0.234,–
MVTRLDAIYFRI,0.653,0.237,–
NLVSLPILLFFR,0.629,0.0961,–
PDKRNHLIKLLN,–,0.141 and 0.117,"protein stability index [3, 6]: 0.537 ± 0.022; protein stability index [3, 7]: 0.691 ± 0.03; protein stability index [3, 8]: 0.648 ± 0.029; protein stability index [3, 9]: 0.704 ± 0.0085; protein stability index [3, 10]: 0.0937 ± 0.024; protein stability index [3, 11]: 0.119 ± 0.0097; protein stability index [3, 12]: 0.153 ± 0.031; protein stability index [4]: 0.661 and 0.625; protein stability index [5]: 0.194 ± 0.031"
PITLPMCPLLLR,0.648,0.471,–
PSLRVLLPLYFR,0.679,0.285,–
PVTRLDAIYFRI,0.693,0.425,–
RSCRVLLPLYFR,0.66,0.275,–
RSLDVLLPLYFR,0.685,0.244,–
RSLFVLLPLYFR,0.613,0.265,–
RSLLVLLPLYFR,0.638,0.344,–
RSLRDLLPLYFR,0.702,0.507,–

Sequence,protein stability index [1],protein stability index [2],other results
RSLRELLPLYFR,0.698,0.476,–
RSLRHLLPLYFR,0.693,0.45,–
RSLRVGLPLYFR,0.665,0.287,–
RSLRVKLPLYFR,0.667,0.195,–
RSLRVLGPLYFR,0.687,0.344,–
RSLRVLLDLYFR,0.654,0.64,–
RSLRVLLPAYFR,0.65,0.577,–
RSLRVLLPHYFR,0.683,0.663,–
RSLRVLLPLLFR,0.661,0.371,–
RSLRVLLPLYFP,0.657,0.634,–
RSLRVLLPLYFRC,0.476,0.218,–
RSLRVLLPLYFRY,0.606,0.259,–
RSLRVLLPMYFR,0.658,0.334,–
RSLRVLLPNYFR,0.673,0.64,–
RSLRVLLPRYFR,0.664,0.637,–
RSLRVLLPVYFR,0.632,0.278,–
RSLRVLLPWYFR,0.666,0.606,–
RSLRVLPPLYFR,0.697,0.273,–
RSLRVLTPLYFR,0.68,0.246,–
VRGAVGGWRLVG,–,0.161,"protein stability index [3, 6]: 0.572 ± 0.059; protein stability index [3, 7]: 0.754 ± 0.032; protein stability index [3, 8]: 0.629 ± 0.013; protein stability index [3, 9]: 0.764 ± 0.016; protein stability index [3, 10]: 0.116 ± 0.028; protein stability index [3, 11]: 0.131 ± 0.028; protein stability index [3, 12]: 0.23 ± 0.0039; protein stability index [4]: 0.681; protein stability index [5]: 0.228 ± 0.082"
VRWRVGLWRGAS,–,0.209,protein stability index [4]: 0.648
VSMRWTFRYWVN,–,0.0543,protein stability index [4]: 0.509
WKILRQKMNHQN,–,0.244,protein stability index [4]: 0.678
YRGAVGGWRLVG,–,0.218,protein stability index [4]: 0.664
